# Assay results taken from the Immune Epitope Database (IEDB).
# Key:
# Assay in all cases: IEDB peptide-MHC binding, purified MHC/competitive/radioactivity; filed as Kd, often an IC50 or EC50 that approximates it; ≥ and ≤ were set here for values at or beyond the usual limits of such assays
# HLA-A*31:01 = target: HLA-A*31:01
# HLA-A*11:01 = target: HLA-A*11:01
# HLA-A*33:01 = target: HLA-A*33:01
# HLA-A*68:01 = target: HLA-A*68:01
# HLA-A*03:01 = target: HLA-A*03:01
# [1] = source organism: Vaccinia virus WR
# [2] = source organism: SARS coronavirus Tor2
# [3] = source organism: Dengue virus 2 Jamaica/1409/1983
# [4] = source organism: Lymphocytic choriomeningitis virus (strain Pasteur)
# [5] = source organism: Lassa virus Josiah
# [6] = source organism: Dengue virus 1 Brazil/97-11/1997
# [7] = source organism: Dengue virus 3 Martinique/1243/1999
# [8] = source organism: Dengue virus 4 Philippines/H241/1956
Sequence,Kd (HLA-A*31:01; [1]),Kd (HLA-A*11:01; [1]),Kd (HLA-A*33:01; [1]),Kd (HLA-A*68:01; [1]),Kd (HLA-A*03:01; [1]),other results
LLVKMINHLK,5420 nM,400 nM,≥ 67500 nM,776 nM,258 nM,
AMPNLYKMQR,,,,,,Kd (HLA-A*31:01; [2]): 240 nM; Kd (HLA-A*11:01; [2]): 1010 nM; Kd (HLA-A*33:01; [2]): 11700 nM; Kd (HLA-A*68:01; [2]): 1970 nM; Kd (HLA-A*03:01; [2]): 1040 nM
ILEYLYIMR,97.6 nM,1090 nM,426 nM,303 nM,1570 nM,
KSIENKHQR,1.55 nM,29.4 nM,1080 nM,100 nM,12600 nM,
LLLTSSQQK,,,,,,Kd (HLA-A*03:01; [3]): 15.5 nM
KFAEESYTY,13500 nM,16500 nM,≥ 77700 nM,≥ 38700 nM,≥ 78000 nM,
WLYYNQDVQR,222 nM,7910 nM,161 nM,8.21 nM,1840 nM,
DFRDYQSYR,74.5 nM,13600 nM,0.837 nM,1020 nM,≥ 78000 nM,
GVRVRVAVNK,12100 nM,840 nM,≥ 70000 nM,2190 nM,52.2 nM,
HIIDSFNIR,1.12 nM,149 nM,732 nM,0.448 nM,1680 nM,
SSRVDRYSK,266 nM,16.9 nM,1210 nM,611 nM,65.9 nM,
DILSIIDAK,≥ 77900 nM,428 nM,896 nM,49.7 nM,876 nM,
TYLGPLNCK,,,,,,Kd (HLA-A*31:01; [4]): 5220 nM; Kd (HLA-A*11:01; [4]): 47.8 nM; Kd (HLA-A*33:01; [4]): 834 nM; Kd (HLA-A*68:01; [4]): 699 nM; Kd (HLA-A*03:01; [4]): 481 nM
VLKAMHDKK,126 nM,364 nM,977 nM,3420 nM,263 nM,
KKKTPRMCTR,,,,,,Kd (HLA-A*31:01; [3]): 768 nM
DQAMTQMYK,,,,,,Kd (HLA-A*31:01; [2]): 6970 nM; Kd (HLA-A*11:01; [2]): 866 nM; Kd (HLA-A*33:01; [2]): 8450 nM; Kd (HLA-A*68:01; [2]): 121 nM; Kd (HLA-A*03:01; [2]): 2560 nM
DIFMRDWNSK,12400 nM,4230 nM,548 nM,74.2 nM,≥ 70100 nM,
VVYRGTTTYK,,,,,,Kd (HLA-A*31:01; [2]): 260 nM; Kd (HLA-A*11:01; [2]): 15.8 nM; Kd (HLA-A*33:01; [2]): 6920 nM; Kd (HLA-A*68:01; [2]): 11.6 nM; Kd (HLA-A*03:01; [2]): 5.74 nM
PVSDLYTSMR,539 nM,638 nM,346 nM,1.3 nM,6260 nM,

Sequence,Kd (HLA-A*31:01; [1]),Kd (HLA-A*11:01; [1]),Kd (HLA-A*33:01; [1]),Kd (HLA-A*68:01; [1]),Kd (HLA-A*03:01; [1]),other results
RASLIPDATH,,,,,,Kd (HLA-A*31:01; [5]): 1980 nM; Kd (HLA-A*11:01; [5]): ≥ 59100 nM; Kd (HLA-A*33:01; [5]): ≥ 50700 nM; Kd (HLA-A*68:01; [5]): 19600 nM
QIGEYTFEK,,,,,,Kd (HLA-A*31:01; [2]): 1920 nM; Kd (HLA-A*11:01; [2]): 9.93 nM; Kd (HLA-A*33:01; [2]): ≥ 22200 nM; Kd (HLA-A*68:01; [2]): 589 nM; Kd (HLA-A*03:01; [2]): 48.7 nM
PAGRPNYVK,12 nM,210 nM,7210 nM,15900 nM,≥ 31900 nM,
IIPALFEPER,,,,,,Kd (HLA-A*68:01; [6]): 76.7 nM
DSYTQMCDHR,,,,,,Kd (HLA-A*33:01; [6]): 335 nM
RAVKFAEESY,≥ 70000 nM,14500 nM,≥ 70000 nM,7290 nM,14800 nM,
FQGKFKKIVK,,,,,,Kd (HLA-A*31:01; [2]): 13400 nM; Kd (HLA-A*11:01; [2]): 2880 nM; Kd (HLA-A*33:01; [2]): ≥ 24700 nM; Kd (HLA-A*68:01; [2]): ≥ 24200 nM; Kd (HLA-A*03:01; [2]): 9460 nM
LTSMKYFVK,,,,,,Kd (HLA-A*31:01; [2]): 74.9 nM; Kd (HLA-A*11:01; [2]): 19.9 nM; Kd (HLA-A*33:01; [2]): 939 nM; Kd (HLA-A*68:01; [2]): 234 nM; Kd (HLA-A*03:01; [2]): 223 nM
KTSSVARLR,,,,,,Kd (HLA-A*11:01; source organism: Lymphocytic choriomeningitis virus (strain Armstrong)): 72.8 nM
SLLTCAKFK,,,,,,Kd (HLA-A*03:01; [6]): 21 nM
VVYDAKFEK,,,,,,Kd (HLA-A*11:01; [6]): 42.4 nM; Kd (HLA-A*03:01; [6]): 7.01 nM
RMIVGKNER,,,,,,Kd (HLA-A*31:01; [7]): 16.1 nM
KLRPRWLDAR,,,,,,Kd (HLA-A*31:01; [6]): 0.403 nM
PVYLMTLMK,,,,,,Kd (HLA-A*11:01; [8]): 196 nM; Kd (HLA-A*03:01; [8]): 3.91 nM
LTTLSRTSK,,,,,,Kd (HLA-A*11:01; [3]): 214 nM
LIKNAQTPR,,,,,,Kd (HLA-A*31:01; [8]): 13.6 nM
TTILDVDLR,,,,,,Kd (HLA-A*68:01; [8]): 35.8 nM
EWLWRTLGR,,,,,,Kd (HLA-A*33:01; [7]): 8.26 nM
